# Test results: the supplement of paper PMC5998384
# What was measured:
# [1] = tested on: HeLa Kyoto; assay: thermal stability score vs G1/S (z-score of summed log2 fold changes over temperatures); higher = more thermally stable than in G1/S
# [2] = tested on: HeLa Kyoto; assay: solubility change mitosis vs G1/S (difference of NP-40 vs SDS log2 ratios) (log2 ratio difference); higher = more soluble in mitosis
# [3] = tested on: HeLa Kyoto; assay: solubility in G1/S (NP-40 vs SDS abundance) (log2 ratio); higher = more soluble; settings: cell cycle stage: G1/S
# [4] = tested on: HeLa Kyoto; assay: melting temperature (median over replicates), in situ; higher = more thermally stable
# [5] = cell cycle stage: early G1 (4.5 h after nocodazole release)
# 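Throughout, for melting temperature (median over replicates), in situ: HeLa Kyoto cells synchronized by double thymidine or nocodazole block, proteins quantified by TMT10plex mass spectrometry, three independent biological replicates.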
# 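Throughout, for solubility change mitosis vs G1/S (difference of NP-40 vs SDS log2 ratios): synchronized HeLa Kyoto cells (double thymidine block for G1/S, nocodazole release for mitosis), protein amounts in NP-40 versus SDS lysates quantified by mass spectrometry, three biological replicates.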
# 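Throughout, for solubility in G1/S (NP-40 vs SDS abundance): HeLa Kyoto cells arrested at G1/S by double thymidine block, proteins quantified by TMT10plex mass spectrometry in mild NP-40 versus SDS extracts, three biological replicates.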
# 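Throughout, for thermal stability score vs G1/S (z-score of summed log2 fold changes over temperatures): synchronized HeLa Kyoto cells, proteins quantified by TMT10plex mass spectrometry, three biological replicates, mitosis taken 0.5 h after nocodazole release, G1/S directly after double thymidine block.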
# Chain of RSBN1 (chain, as listed by the source): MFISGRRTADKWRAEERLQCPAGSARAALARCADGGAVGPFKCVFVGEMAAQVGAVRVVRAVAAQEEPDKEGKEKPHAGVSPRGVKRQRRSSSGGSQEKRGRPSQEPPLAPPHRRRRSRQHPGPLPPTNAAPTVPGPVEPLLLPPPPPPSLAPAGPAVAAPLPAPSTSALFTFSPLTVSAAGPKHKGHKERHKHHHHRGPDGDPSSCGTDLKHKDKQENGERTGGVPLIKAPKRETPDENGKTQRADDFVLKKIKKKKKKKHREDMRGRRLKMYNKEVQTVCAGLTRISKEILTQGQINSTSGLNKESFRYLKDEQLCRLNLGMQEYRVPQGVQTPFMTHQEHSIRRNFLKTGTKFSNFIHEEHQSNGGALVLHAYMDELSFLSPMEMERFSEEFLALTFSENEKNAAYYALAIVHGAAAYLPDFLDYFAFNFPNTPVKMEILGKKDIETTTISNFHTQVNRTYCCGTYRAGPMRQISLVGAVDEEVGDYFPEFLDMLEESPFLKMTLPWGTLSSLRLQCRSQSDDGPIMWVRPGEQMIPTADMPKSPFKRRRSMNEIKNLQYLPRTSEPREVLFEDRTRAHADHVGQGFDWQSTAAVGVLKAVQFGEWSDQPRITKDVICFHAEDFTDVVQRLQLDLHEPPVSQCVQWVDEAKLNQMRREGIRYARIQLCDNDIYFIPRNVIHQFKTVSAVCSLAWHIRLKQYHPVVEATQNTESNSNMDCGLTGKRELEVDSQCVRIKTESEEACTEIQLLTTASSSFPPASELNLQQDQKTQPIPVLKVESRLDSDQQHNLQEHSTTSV
Substance,"thermal stability score [1, 5]",thermal stability score ([1]; cell cycle stage: mitosis),solubility change mitosis (log2) [2],solubility in G1/S (log2) [3],melting temperature ([4]; cell cycle stage: G1/S) [°C],melting temperature ([4]; cell cycle stage: mitosis) [°C]
MVSHGSSPSLLEALSSDFLACKICLEQLRAPKTLPCLHTYCQDCLAQLADGGRVRCPECRETVPVPPEGVASFKTNFFVNGLLDLVKARACGDLRAGKPACALCPLVGGTSTGGPATARCLDCADDLCQACADGHRCTRQTHTHRVVDLVGYRAGWYDEEARERQAAQCPQHPGEALRFLCQPCSQLLCRECRLDPHLDHPCLPLAEAVRARRPGLEGLLAGVDNNLVELEAARRVEKEALARLREQAARVGTQVEEAAEGVLRALLAQKQEVLGQLRAHVEAAEEAARERLAELEGREQVARAAAAFARRVLSLGREAEILSLEGAIAQRLRQLQGCPWAPGPAPCLLPQLELHPGLLDKNCHLLRLSFEEQQPQKDGGKDGAGTQGGEESQSRREDEPKTERQGGVQPQAGDGAQTPKEEKAQTTREEGAQTLEEDRAQTPHEDGGPQPHRGGRPNKKKKFKGRLKSISREPSPALGPNLDGSGLLPRPIFYCSFPTRMPGDKRSPRITGLCPFGPREILVADEQNRALKRFSLNGDYKGTVPVPEGCSPCSVAALQSAVAFSASARLYLINPNGEVQWRRALSLSQASHAVAALPSGDRVAVSVAGHVEVYNMEGSLATRFIPGGKASRGLRALVFLTTSPQGHFVGSDWQQNSVVICDGLGQVVGEYKGPGLHGCQPGSVSVDKKGYIFLTLREVNKVVILDPKGSLLGDFLTAYHGLEKPRVTTMVDGRYLVVSLSNGTIHIFRVRSPDS [TRIM56],0.0282,0.527,0.0648,-0.379,52.4,50.7
MDTPPLSDSESESDESLVTDRELQDAFSRGLLKPGLNVVLEGPKKAVNDVNGLKQCLAEFKRDLEWVERLDVTLGPVPEIGGSEAPAPQNKDQKAVDPEDDFQREMSFYRQAQAAVLAVLPRLHQLKVPTKRPTDYFAEMAKSDLQMQKIRQKLQTKQAAMERSEKAKQLRALRKYGKKVQTEVLQKRQQEKAHMMNAIKKYQKGFSDKLDFLEGDQKPLAQRKKAGAKGQQMRKGPSAKRRYKNQKFGFGGKKKGSKWNTRESYDDVSSFRAKTAHGRGLKRPGKKGSNKRPGKRTREKMKNRTH [EBNA1BP2],0.765,0.121,1.38,-1.71,54,53.4
MVMEKPSPLLVGREFVRQYYTLLNKAPEYLHRFYGRNSSYVHGGVDASGKPQEAVYGQNDIHHKVLSLNFSECHTKIRHVDAHATLSDGVVVQVMGLLSNSGQPERKFMQTFVLAPEGSVPNKFYVHNDMFRYEDEVFGDSEPELDEESEDEVEEEQEERQPSPEPVQENANSGYYEAHPVTNGIEEPLEESSHEPEPEPESETKTEELKPQVEEKNLEELEEKSTTPPPAEPVSLPQEPPKAFSWASVTSKNLPPSGTVSSSGIPPHVKAPVSQPRVEAKPEVQSQPPRVREQRPRERPGFPPRGPRPGRGDMEQNDSDNRRIIRYPDSHQLFVGNLPHDIDENELKEFFMSFGNVVELRINTKGVGGKLPNFGFVVFDDSEPVQRILIAKPIMFRGEVRLNVEEKKTRAARERETRGGGDDRRDIRRNDRGPGGPRGIVGGGMMRDRDGRGPPPRGGMAQKLGSGRGTGQMEGRFTGQRR [G3BP2],-0.995,-2.86,0.158,-0.124,51.7,50.4
MGVQGFQDYIEKHCPSAVVPVELQKLARGSLVGGGRQRPPQTPLRLLVDADNCLHRLYGGFYTDWVSGGQWNHMLGYLAALAKACFGGNIELFVFFNGALEKARLHEWVKRQGNERQTAQQIVSHVQNKGTPPPKVWFLPPVCMAHCIRLALIRFHVKVAQSIEDHHQEVIGFCRENGFHGLVAYDSDYALCNIPYYFSAHALKLSRNGKSLTTSQYLMHEVAKQLDLNPNRFPIFAALLGNHILPDEDLASFHWSLLGPEHPLASLKVRAHQLVLPPCDVVIKAVADYVRNIQDTSDLDAIAKDVFQHSQSRTDDKVIRFKRAIGYYSATSKPMSFHPPHYLAARPGPFGMPGMVPPHVPPQMLNIPQTSLQAKPVAPQVPSPGGAPGQGPYPYSLSEPAPLTLDTSGKNLTEQNSYSNIPHEGKHTPLYERSSPINPAQSGSPNHVDSAYFPGSSTSSSSDNDEGSGGATNHISGNKIGWEKTGSHSEPQARGDPGDQTKAEGSSTASSGSQLAEGKGSQMGTVQPIPCLLSMPTRNHMDITTPPLPPVAPEVLRVAEHRHKKGLMYPYIFHVLTKGEIKIAVSIEDEANKDLPPAALLYRPVRQYVYGVLFSLAESRKKTERLAFRKNRLPPEFSPVIIKEWAAYKGKSPQTPELVEALAFREWTCPNLKRLWLGKAVEDKNRRMRAFLACMRSDTPAMLNPANVPTHLMVLCCVLRYMVQWPGARILRRQELDAFLAQALSPKLYEPDQLQELKIENLDPRGIQLSALFMSGVDMALFANDACGQPIPWEHCCPWMYFDGKLFQSKLLKASREKTPLIDLCDGQADQAAKVEKMRQSVLEGLSFSRQSHTLPFPPPPALPFYPASAYPRHFGPVPPSQGRGRGFAGVCGFGGPYGETVATGPYRAFRVAAASGHCGAFSGSDSSRTSKSQGGVQPIPSQGGKLEIAGTVVGHWAGSRRGRGGRGPFPLQVVSVGGPARGRPRGVISTPVIRTFGRGGRYYGRGYKNQAAIQGRPPYAASAEEVAKELKSKSGESKSSAMSSDGSLAENGVMAEEKPAPQMNGSTGDARAPSHSESALNNDSKTCNTNPHLNALSTDSACRREAALEAAVLNKEE [FAM120A],-0.707,-2.24,-0.0663,-0.143,50.9,50.6
MDGEEKTYGGCEGPDAMYVKLISSDGHEFIVKREHALTSGTIKAMLSGPGQFAENETNEVNFREIPSHVLSKVCMYFTYKVRYTNSSTEIPEFPIAPEIALELLMAANFLDC [TCEB1],-1.38,-1.62,-0.0906,0.256,52.2,52.3
RSBN1,-1.37,-1.2,0.0741,-0.345,,53.1
MRLKIGFILRSLLVVGSFLGLVVLWSSLTPRPDDPSPLSRMREDRDVNDPMPNRGGNGLAPGEDRFKPVVPWPHVEGVEVDLESIRRINKAKNEQEHHAGGDSQKDIMQRQYLTFKPQTFTYHDPVLRPGILGNFEPKEPEPPGVVGGPGEKAKPLVLGPEFKQAIQASIKEFGFNMVASDMISLDRSVNDLRQEECKYWHYDENLLTSSVVIVFHNEGWSTLMRTVHSVIKRTPRKYLAEIVLIDDFSNKEHLKEKLDEYIKLWNGLVKVFRNERREGLIQARSIGAQKAKLGQVLIYLDAHCEVAVNWYAPLVAPISKDRTICTVPLIDVINGNTYEIIPQGGGDEDGYARGAWDWSMLWKRVPLTPQEKRLRKTKTEPYRSPAMAGGLFAIEREFFFELGLYDPGLQIWGGENFEISYKIWQCGGKLLFVPCSRVGHIYRLEGWQGNPPPIYVGSSPTLKNYVRVVEVWWDEYKDYFYASRPESQALPYGDISELKKFREDHNCKSFKWFMEEIAYDITSHYPLPPKNVDWGEIRGFETAYCIDSMGKTNGGFVELGPCHRMGGNQLFRINEANQLMQYDQCLTKGADGSKVMITHCNLNEFKEWQYFKNLHRFTHIPSGKCLDRSEVLHQVFISNCDSSKTTQKWEMNNIHSV [GALNT7],0.0877,0.865,-0.135,-0.206,53.7,53.8
MATLRRLREAPRHLLVCEKSNFGNHKSRHRHLVQTHYYNYRVSFLIPECGILSEELKNLVMNTGPYYFVKNLPLHELITPEFISTFIKKGSCYALTYNTHIDEDNTVALLPNGKLILSLDKDTYEETGLQGHPSQFSGRKIMKFIVSIDLMELSLNLDSKKYERISWSFKEKKPLKFDFLLAWHKTGSEESTMMSYFSKYQIQEHQPKVALSTLRDLQCPVLQSSELEGTPEVSCRALELFDWLGAVFSNVDLNNEPNNFISTYCCPEPSTVVAKAYLCTITGFILPEKICLLLEHLCHYFDEPKLAPWVTLSVQGFADSPVSWEKNEHGFRKGGEHLYNFVIFNNQDYWLQMAVGANDHCPP [RPP40],-1.89,-4.46,-0.00249,-0.386,55.5,56.5
MKALDEPPYLTVGTDVSAKYRGAFCEAKIKTAKRLVKVKVTFRHDSSTVEVQDDHIKGPLKVGAIVEVKNLDGAYQEAVINKLTDASWYTVVFDDGDEKTLRRSSLCLKGERHFAESETLDQLPLTNPEHFGTPVIGKKTNRGRRSNHIPEEESSSSSSDEDEDDRKQIDELLGKVVCVDYISLDKKKALWFPALVVCPDCSDEIAVKKDNILVRSFKDGKFTSVPRKDVHEITSDTAPKPDAVLKQAFEQALEFHKSRTIPANWKTELKEDSSSSEAEEEEEEEDDEKEKEDNSSEEEEEIEPFPEERENFLQQLYKFMEDRGTPINKRPVLGYRNLNLFKLFRLVHKLGGFDNIESGAVWKQVYQDLGIPVLNSAAGYNVKCAYKKYLYGFEEYCRSANIEFQMALPEKVVNKQCKECENVKEIKVKEENETEIKEIKMEEERNIIPREEKPIEDEIERKENIKPSLGSKKNLLESIPTHSDQEKEVNIKKPEDNENLDDKDDDTTRVDESLNIKVEAEEEKAKSGDETNKEEDEDDEEAEEEEEEEEEEEDEDDDDNNEEEEFECYPPGMKVQVRYGRGKNQKMYEASIKDSDVEGGEVLYLVHYCGWNVRYDEWIKADKIVRPADKNVPKIKHRKKIKNKLDKEKDKDEKYSPKNCKLRRLSKPPFQTNPSPEMVSKLDLTDAKNSDTAHIKSIEITSILNGLQASESSAEDSEQEDERGAQDMDNNGKEESKIDHLTNNRNDLISKEEQNSSSLLEENKVHADLVISKPVSKSPERLRKDIEVLSEDTDYEEDEVTKKRKDVKKDTTDKSSKPQIKRGKRRYCNTEECLKTGSPGKKEEKAKNKESLCMENSSNSSSDEDEEETKAKMTPTKKYNGLEEKRKSLRTTGFYSGFSEVAEKRIKLLNNSDERLQNSRAKDRKDVWSSIQGQWPKKTLKELFSDSDTEAAASPPHPAPEEGVAEESLQTVAEEESCSPSVELEKPPPVNVDSKPIEEKTVEVNDRKAEFPSSGSNSVLNTPPTTPESPSSVTVTEGSRQQSSVTVSEPLAPNQEEVRSIKSETDSTIEVDSVAGELQDLQSEGNSSPAGFDASVSSSSSNQPEPEHPEKACTGQKRVKDAQGGGSSSKKQKRSHKATVVNNKKKGKGTNSSDSEELSAGESITKSQPVKSVSTGMKSHSTKSPARTQSPGKCGKNGDKDPDLKEPSNRLPKVYKWSFQMSDLENMTSAERITILQEKLQEIRKHYLSLKSEVASIDRRRKRLKKKERESAATSSSSSSPSSSSITAAVMLTLAEPSMSSASQNGMSVECR [ARID4B],0.255,0.983,0.0721,-0.276,48.4,49.6
MALAARLLPQFLHSRSLPCGAVRLRTPAVAEVRLPSATLCYFCRCRLGLGAALFPRSARALAASALPAQGSRWPVLSSPGLPAAFASFPACPQRSYSTEEKPQQHQKTKMIVLGFSNPINWVRTRIKAFLIWAYFDKEFSITEFSEGAKQAFAHVSKLLSQCKFDLLEELVAKEVLHALKEKVTSLPDNHKNALAANIDEIVFTSTGDISIYYDEKGRKFVNILMCFWYLTSANIPSETLRGASVFQVKLGNQNVETKQLLSASYEFQREFTQGVKPDWTIARIEHSKLLE [C2ORF47],0.0315,0.76,-0.117,-0.257,53.7,53.3
ARFGEF1,0.51,0.0301,-0.109,-0.319,50.8,50.1
